Target: purified deactivated Arabidopsis Rubisco (Ribulose-1,5-bisphosphate carboxylase/oxygenase), O03042

Protein | Activation of deactivated Rubisco assay, 25° C., relative activity (%) | Activity (3rd tier) 25° C. (µmol CO2 min^-1 mg^-1) | Activity (3rd tier) 40° C. (µmol CO2 min^-1 mg^-1) | Rubisco activation under catalytic conditions assay, 25° C., relative activity (%) | specific activity, Rubisco activation under catalytic conditions
Rubisco Activase derived polypeptide 183H12 (protein) MVKEDKQTDGDRWRGLAYDTSDDQQDITRGKGMVDSVFQAPMGTGTHHAVLSSYEYVSQGLRQYNLDNMMDGFYIAPAFMDKLVVHITKNFLTLPNIKVPLILGIWGGKGQGKSFQCELVMAKMGINPIMMSAGELESGNAGEPAKLIRQRYREAADLIKKGKMCCLFINDLDAGAGRMGGTTQYTVNNQMVNATLMNIADNPTNVQLPGMYNKEENARVPIICTGNDFSTLYAPLIRDGRMEKFYWAPTREDRIGVCKGIFRTDKIKDEDIVRLVDQFPGQSIDFFGALRARVYDDEVRKFVESLGVEKIGKRLVNSREGPPVFEQPEMTYEKLMEYGNMLVMEQENVKRVQLAETYLSQAALGDANADAIGRGTFYGKTEEKEPSKLE | 109% | 1.05 | 0.857 | 118% | The protein displaying the highest specific activity at either 25 °C or 40 °C was the best variant isolated in the first round, 183H12
Rubisco Activase derived polypeptide 182B11 (protein) MVKEDKQTDGDRWRGLAYDTSDDQQDITRGKGMVDSVFQAPMGTGTHHAVLSSYEYVSQGLRQYNLDNMMDGFYIAPAFMDKLVVHITKNFLTLPNIKVPLILGIWGGKGQGKSFQCELVMAKMGINPIMISAGELESGNAGEPAKLIRQRYREAADLIKKGKMCCLFINDLDAGAGRMGGTTQYTVNNQMVNATLMNIADNPTNVQLPGMYNKEENARVPIICTGNDFSTLYAPLIRDGRMEKFYWAPTREDRIGVCKGIFRTDKIKDEDIVTLVDQFPGQSIDFFGALRARVYDDEVRKFVESLGVEKIGKRLVNSREGPPVFEQPEMTYEKLMEYGNMLVMEQENVKRVQLAETYLSQAALGDANADAIGRGTFYGKTEEKEPSKLE |  | 0.426 | 0.359 |  | 
Rubisco Activase derived polypeptide 301H3 (protein) MVKEDKQTDGDRWRGLAYDTSDDQQDITRGKGMVDSVFQAPMGTGTHHAVLSSYEYVSQGLRQYNLDNMMDGFYIAPAFMDKLVVHITKNFLTLPNIKVPLILGIWGGKGQGKSFQCELVMAKMGINPIMMSAGELESGNAGEPAKLIRQRYREAADLIKKGKMCCLFINDLDAGAGRMGGTTQYTVNNQMVNATLMNIADNPTNVQLPGMYNKEENARVPIICTGNDFSTLYAPLIRDGRMEKFYWAPTREDRIGICKGIFRTDKIKDEDIVRLVDQFPGQSIDFFGALRARVYDDEVRKFVESLGVENIGKRLVNSREGPPVFEQPEMTYEKLMEYGNMLVMEQENVKRVQLAETYLSQAALGDANADAIGRGTFYGKTEEKEPSKLE | 101% | 0.971 | 0.86 | 92% | 
Rubisco Activase derived polypeptide 214A4 (protein) MVKEDKQTDGDRWRGLAYDTSDDQQDITRGKGMVDSVFQAPTGTGTHHAVLSSYEYVSQGLRQYNLDNMMDGFYIAPAFMDKLVVHITKNFLTLPNIKVPLILGIWGGKGQGKSFQCELVMAKMGINPIMMSAGELESGNAGEPAKLIRQRYREAADLIKKGKMCCLFINDLDAGAGRMGGTTQYTVNNQMVNATLMNIADNPTNVQLPGMYNKEENARVPIICTGNDFSTLYAPLIRDGRMEKFYWAPTREDRIGVCKGIFRTDKIKDEDIVRLVDQFPGQSIDFFGALRARVYDDEVRKFVESLGVEKIGKRLVNSREGPPVFEQPEMTYEKLMEYGNMLVMEQENVKRVQLAETYLSQAALGDANADAIGRGTFYGKTEEKEPSKLE | 111% | 1.07 | 0.986 | 101% | 
Rubisco Activase derived polypeptide 079H6 (protein) MVKEDKQTDGDRWRGLAYDTSDDQQDITRGKGMVDSVFQAPTGTGTHHAVLSSYEYVSQGLRQYNLDNMMDGFYIAPAFMDKLVVHITKNFLTLPNIKVPLILGIWGGKGQGKSFQCELVMAKMGINPIMISAGELESGNAGEPAKLIRQRYREAADLIKKGKMCCLFINDLDAGAGRMGGTTQYTVNNQMVNATLMNIADNPTNVQLPGMYNKEENARVPIICTGNDFSTLYAPLIRDGRMEKFYWAPTREDRIGVCKGIFRTDKIKDEDIVTLVDQFPGQSIDFFGALRAKVYDDEVRKFVESLGVEKIGKRLVNSREGPPVFEQPEMTYEKLMEYGNMLVMEQENVKRVQLAETYLSQAALGDANADAIGRGTFYGKTEEKEPSKLE | 111% | 1.06 | 0.94 | 105% | 
Rubisco Activase derived polypeptide 184B2 (protein) MVKEDKQTDGDRWRGLAYDTSDDQQDITRGKGMVDSVFQAPMGTGTHHAVLSSYEYVSQGLRQYNLDNMMDGFYIAPAFMDKLVVHITKNFLTLPNIKVPLILGIWGGKGQGKSFQCELVMAKMGINPIMMSAGELESGNAGEPAKLIRQRYREAADLIKKGKMCCLFINDLDAGAGRMGGTTQYTVNNQMVNATLMNIADNPTNVQLPGMYNKEENARVPIICTGNDFSTLYAPLIRDGRMEKFYWAPTREDRIGVCKGIFRTDKIKDEDIVTLVDQFPGQSIDFFGALRARVYDDEVRKFVESLGVENIGKRLVNSREGPPVFEQPEMTYEKLMEYGNMLVMEQENVKRVQLAETYLSQAALGDANADAIGRGTFYGKTEEKEPSKLE |  | 1.05 | 0.889 |  | 
Rubisco Activase derived polypeptide 126H4 (protein) MVKEDKQTDGDRWRGLAYDTSDDQQDITRGKGMVDSVFQAPMGTGTHHAVLSSYEYVSQGLRQYNLDNMMDGFYIAPAFMDKLVVHITKNFLTLPNIKVPLILGIWGGKGQGKSFQCELVMAKMGINPIRMSAGELESGNAGEPAKLIRQRYREAADLIKKGKMCCLFINDLDAGAGRMGGTTQYTVNNQMVNATLMNIADNPTNVQLPGMYNKEENARVPIICTGNDFSTLYAPLIRDGRMEKFYWAPTREDRIGVCKGIFRTDKIKDEDIVTLVDQFPGQSIDFFGALRARVYDDEVRKFVESLGVEKIGKRLVNSREGPPVFEQPEMTYEKLMEYGNMLVMEQENVKRVQLAETYLSQAALGDANADAIGRGTFYGKTEEKEPSKLE |  | 0.616 | 0.596 |  | 
Rubisco Activase derived polypeptide 382D8 (protein) MVKEDKQTDGDRWRGLAYDTSDDQQDITRGKGMVDSVFQAPMGTGTHHAVLSSYEYVSQGLRQYNLDNMMDGFYIAPAFMDKLVVHITKNFLTLPNIKVPLILGIWGGKGQGKSFQCELVMAKMGINPIMVSAGELESGNAGEPAKLIRQRYREAADLIKKGKMCCLFINDLDAGAGRMGGTTQYTVNNQMVNATLMNIADNPTNVQLPGMYNKEENARVPIICTGNDFSTLYAPLIRDGRMEKFYWAPTREDRIGICKGIFRTDKIKDEDIVTLVDQFPGQSIDFFGALRARVYDDEVRKFVESLGVENIGKRLVNSREGPPVFEQPEMTYEKLMEYGNMLVMEQENVKRVQLAETYLSQAALGDANADAIGRGTFYGKTEEKEPSKLE | 105% | 1.01 | 0.91 | 98% | 
Rubisco Activase derived polypeptide 383A12 (protein) MVKEDKQTDGDRWRGLAYDTSDDQQDITRGKGMVDSVFQAPMGTGTHHAVLSSYEYVSQGLRQYNLDNMMDGFYIAPAFMDKLVVHITKNFLTLPNIKVPLILGIWGGKGQGKSFQCELVMAKMGINPIMMSAGELESGNAGEPAKLIRQRYREAADLIKKGKMCCLLINDLDAGAGRMGGTTQYTVNNQMVNATLMNIADNPTNVQLPGMYNKEENARVPIICTGNDFSTLYAPLIRDGRMEKFYWAPTREDRIGICKGIFRTDKIKDEDIVRLVDQFPGQSIDFFGALRARVYDDEVRKFVESLGVENIGKRLVNSREGPPVFEQPEMTYEKLMEYGNMLVMEQENVKRVQLAETYLSQAALGDANADAIGRGTFYGKTEEKEPSKLE | 93% | 0.891 | 0.92 | 96% | 
wild type Rubisco Activase (Arabidopsis, short form RCA1) (protein) MVKEDKQTDGDRWRGLAYDTSDDQQDITRGKGMVDSVFQAPMGTGTHHAVLSSYEYVSQGLRQYNLDNMMDGFYIAPAFMDKLVVHITKNFLTLPNIKVPLILGIWGGKGQGKSFQCELVMAKMGINPIMMSAGELESGNAGEPAKLIRQRYREAADLIKKGKMCCLFINDLDAGAGRMGGTTQYTVNNQMVNATLMNIADNPTNVQLPGMYNKEENARVPIICTGNDFSTLYAPLIRDGRMEKFYWAPTREDRIGVCKGIFRTDKIKDEDIVTLVDQFPGQSIDFFGALRARVYDDEVRKFVESLGVEKIGKRLVNSREGPPVFEQPEMTYEKLMEYGNMLVMEQENVKRVQLAETYLSQAALGDANADAIGRGTFYGKTEEKEPSKLE | 100% | 0.96 | 0.634 | 100% | 
Rubisco Activase derived polypeptide 301C7 (protein) MVKEDKQTDGDRWRGLAYDTSDDQQDITRGKGMVDSVFQAPMGTGTHHAVLSSYEYVSQGLRQYNLDNMMDGFYIAPAFMDKLVVHITKNFLTLPNIKVPLILGIWGGKGQGKSFQCELVMAKMGINPIMMSAGELESGNAGEPAKLIRQRYREAADLIKKGKMCCLLINDLDAGAGRMGGTTQYTVNNQMVNATLMNIADNPTNVQLPGMYNKEENARVPIICTGNDFSTLYAPLIRDGRMEKFYWAPTREDRIGICKGIFRTDKIKDEDIVTLVDQFPGQSIDFFGALRARVYDDEVRKFVESLGVENIGKRLVNSREGPPVFEQPEMTYEKLMEYGNMLVMEQENVKRVQLAETYLSQAALGDANADAIGRGTFYGKTEEKEPSKLE | 94% | 0.905 | 0.889 | 96% | 

— patent US20080072349
